# Biological target: Jak2 (UniProt O60674)
# Assay: phosphorylation enrichment, bacterial display (enrichment ratio); higher = better substrate or ligand; peptides without Tyr show the background
# 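Note: 11-residue human phosphosite peptides and single-mutation variants displayed on the E. coli surface, counted by deep sequencing, each peptide's frequency after selection divided by its frequency in the unselected input library; frequency after pTyr selection over input frequency; kinase dosed for 20-30% of maximal phosphorylation in three min.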
# Jak2, sequence (O60674 whole entry, looked up): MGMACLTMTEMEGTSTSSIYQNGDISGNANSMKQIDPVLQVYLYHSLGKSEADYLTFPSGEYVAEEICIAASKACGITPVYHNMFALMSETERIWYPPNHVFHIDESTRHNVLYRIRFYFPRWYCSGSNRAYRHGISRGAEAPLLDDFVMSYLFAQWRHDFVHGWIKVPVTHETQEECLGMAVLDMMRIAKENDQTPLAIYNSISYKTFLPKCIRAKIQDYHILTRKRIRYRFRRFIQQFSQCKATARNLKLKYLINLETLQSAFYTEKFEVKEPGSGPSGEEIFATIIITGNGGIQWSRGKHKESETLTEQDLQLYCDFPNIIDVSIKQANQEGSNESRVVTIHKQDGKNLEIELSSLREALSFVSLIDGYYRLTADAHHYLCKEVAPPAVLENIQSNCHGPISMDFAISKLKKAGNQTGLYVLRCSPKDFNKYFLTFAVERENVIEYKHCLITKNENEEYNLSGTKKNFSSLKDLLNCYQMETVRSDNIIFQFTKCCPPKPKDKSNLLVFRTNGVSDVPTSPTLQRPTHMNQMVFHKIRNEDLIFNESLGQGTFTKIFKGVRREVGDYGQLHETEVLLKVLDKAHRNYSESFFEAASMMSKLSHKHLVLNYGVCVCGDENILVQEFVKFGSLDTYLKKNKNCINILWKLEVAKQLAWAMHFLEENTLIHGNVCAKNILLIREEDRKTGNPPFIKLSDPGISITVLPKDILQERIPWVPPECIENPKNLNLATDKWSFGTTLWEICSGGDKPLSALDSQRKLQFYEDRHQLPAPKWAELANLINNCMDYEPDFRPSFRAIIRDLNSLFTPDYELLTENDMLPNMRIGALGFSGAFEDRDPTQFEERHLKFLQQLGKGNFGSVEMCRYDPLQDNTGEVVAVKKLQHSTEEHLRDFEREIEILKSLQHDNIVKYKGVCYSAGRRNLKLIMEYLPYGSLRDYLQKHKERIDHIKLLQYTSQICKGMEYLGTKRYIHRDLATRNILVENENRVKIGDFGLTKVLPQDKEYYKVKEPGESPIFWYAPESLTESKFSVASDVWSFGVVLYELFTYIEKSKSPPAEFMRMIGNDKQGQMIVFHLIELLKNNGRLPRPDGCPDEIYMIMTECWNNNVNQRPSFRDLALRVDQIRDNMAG
row,Sequence,phosphorylation enrichment
1,DGMADCSDPSY [CDC5L_Y459_Y459C],1.06
2,AKLDEYIAIAK [RCOR3_Y46],0.79
3,YAADYYKLLGN [ROR2_Y646],4.53
4,PRDGEYFTLQI [TP53_Y327_L323R],3.26
5,IGERTYGQVFK [CDK13_Y716_G714R_YF],0.495
6,RGYRQYAYDGK [HLA-A_Y140_D140Y],0.402
7,IIAVHYVLEES [RYR2_Y4559],0.963
8,KDYETYQPFQN [CTNND2_Y1157],0.883
9,SLHPGYNFRFA [P2RX7_Y291_Y288H_YF],0.765
10,SARVRYLMAEK [LDHB_Y173_F171V],0.39
11,KLIETYFSKNF [PLP1_Y50_YF],0.87
12,TQFWRYFAGNL [SLC25A5_Y112_L111R],0.951
13,QNTVDYFDLFG [PTPN11_Y62_G60V_YF],2.22
14,ALDRPYTSKHS [NANS_Y71_E68D],0.636
15,PRPACYPSTVS [CACNA1C_Y1832_G1831C],0.721
16,NIQKKYFRAIL [CHD7_Y1217_YF],0.718
17,YGEYRYRSVIK [CFTR_Y517_D513G],0.599
18,KGFCGYSFDDI [TMEM230_Y110_R108C_YF],1.28
19,ATKNDYWAMLA [WWOX_Y287_P282A],1.02
20,HEDPMYDIIRD [RP9_Y142],1.29
21,MHFSNYVSKGS [PDGFRA_Y849_D846Y_YF],0.489
22,QRASDYYSQQM [GBP6_Y333_A331S],0.805
23,DWRQEYVLNEP [TGM1_Y267_S272P],0.988
24,ADFFDYGHGLS [KHDRBS3_Y304_YF],1.03
25,LADKPYTFEFF [FXN_Y118_D122Y_YF],1.58
26,VIESSYTSADG [DHCR7_Y382_C380S],0.873
27,TFGVVYKARNK [CDK2_Y19_YF],0.805
28,CRVEPYGENFN [APOA4_Y310_R305C],1.28
29,PLDEEYFTLQI [TP53_Y327_G325E],2.57

# Biological target: Hck (UniProt P08631)
# Assay: as above
# Hck, sequence (P08631 whole entry, looked up): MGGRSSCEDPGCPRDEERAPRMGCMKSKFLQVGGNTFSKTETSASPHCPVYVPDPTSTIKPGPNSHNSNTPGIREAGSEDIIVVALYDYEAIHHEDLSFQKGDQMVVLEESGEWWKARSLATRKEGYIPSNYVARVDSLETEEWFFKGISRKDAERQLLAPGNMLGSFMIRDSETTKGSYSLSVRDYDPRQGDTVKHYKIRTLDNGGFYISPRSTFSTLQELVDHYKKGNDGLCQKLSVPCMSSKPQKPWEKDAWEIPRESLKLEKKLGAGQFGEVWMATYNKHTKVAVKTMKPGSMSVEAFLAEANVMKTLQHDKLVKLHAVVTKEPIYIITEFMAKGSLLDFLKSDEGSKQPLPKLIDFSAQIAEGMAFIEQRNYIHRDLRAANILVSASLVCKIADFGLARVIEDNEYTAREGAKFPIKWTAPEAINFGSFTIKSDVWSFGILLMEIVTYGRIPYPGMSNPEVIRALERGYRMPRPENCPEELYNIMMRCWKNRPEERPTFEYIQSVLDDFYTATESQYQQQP
row,Sequence,phosphorylation enrichment
1,DGMADCSDPSY [CDC5L_Y459_Y459C],0.543
2,AKLDEYIAIAK [RCOR3_Y46],0.473
3,YAADYYKLLGN [ROR2_Y646],0.808
4,PRDGEYFTLQI [TP53_Y327_L323R],2.14
5,IGERTYGQVFK [CDK13_Y716_G714R_YF],3.7
6,RGYRQYAYDGK [HLA-A_Y140_D140Y],0.294
7,IIAVHYVLEES [RYR2_Y4559],0.516
8,KDYETYQPFQN [CTNND2_Y1157],6.07
9,SLHPGYNFRFA [P2RX7_Y291_Y288H_YF],0.432
10,SARVRYLMAEK [LDHB_Y173_F171V],0.423
11,KLIETYFSKNF [PLP1_Y50_YF],0.519
12,TQFWRYFAGNL [SLC25A5_Y112_L111R],0.493
13,QNTVDYFDLFG [PTPN11_Y62_G60V_YF],0.595
14,ALDRPYTSKHS [NANS_Y71_E68D],0.489
15,PRPACYPSTVS [CACNA1C_Y1832_G1831C],0.49
16,NIQKKYFRAIL [CHD7_Y1217_YF],0.421
17,YGEYRYRSVIK [CFTR_Y517_D513G],3.67
18,KGFCGYSFDDI [TMEM230_Y110_R108C_YF],0.456
19,ATKNDYWAMLA [WWOX_Y287_P282A],0.453
20,HEDPMYDIIRD [RP9_Y142],5.56
21,MHFSNYVSKGS [PDGFRA_Y849_D846Y_YF],0.457
22,QRASDYYSQQM [GBP6_Y333_A331S],0.788
23,DWRQEYVLNEP [TGM1_Y267_S272P],0.397
24,ADFFDYGHGLS [KHDRBS3_Y304_YF],0.522
25,LADKPYTFEFF [FXN_Y118_D122Y_YF],0.644
26,VIESSYTSADG [DHCR7_Y382_C380S],0.476
27,TFGVVYKARNK [CDK2_Y19_YF],0.39
28,CRVEPYGENFN [APOA4_Y310_R305C],0.608
29,PLDEEYFTLQI [TP53_Y327_G325E],1.2
